pKd: −log10 of the molar value.
Tests used:
[1] = biological target: Alexa-488 maleimide-labeled α-syn^ΔCTD (Δ104-140, A18C) (human) (UniProt P37840); assay: fluorescence polarisation
[2] = biological target: Alexa-488 maleimide-labeled α-synuclein (G132C) (human) (UniProt P37840); assay: fluorescence polarisation

| Substance | fold rise of Kd on removing the CTD of α-syn [1] | pKd [2] |
| --- | --- | --- |
| SARS-CoV-2 nucleocapsid protein with the NTD deleted (NP^ΔNTD) (domain or fragment) | 4 fold | 5.44 |
| SARS-CoV-2 nucleocapsid protein with the CTD deleted (NP^ΔCTD) (domain or fragment) | 3.5 fold | 5.73 |
